Experimental data as given in PMC5849714, “Direct coupling of detergent purified human mGlu5 receptor to the heterotrimeric G proteins Gq and Gs” (Scientific Reports, 2018).
Positions count from the first letter of the chain named.

B1: SNAP-mGlu5-Δ856 (FLAG-SNAP-tagged human mGlu5 receptor truncated after A856) (receptor, UniProt P41594-2 21-856, looked up)
chain: QSSERRVVAHMPGDIIIGALFSVHHQPTVDKVHERKCGAVREQYGIQRVEAMLHTLERINSDPTLLPNITLGCEIRDSCWHSAVALEQSIEFIRDSLISSEEEEGLVRCVDGSSSSFRSKKPIVGVIGPGSSSVAIQVQNLLQLFNIPQIAYSATSMDLSDKTLFKYFMRVVPSDAQQARAMVDIVKRYNWTYVSAVHTEGNYGESGMEAFKDMSAKEGICIAHSYKIYSNAGEQSFDKLLKKLTSHLPKARVVACFCEGMTVRGLLMAMRRLGLAGEFLLLGSDGWADRYDVTDGYQREAVGGITIKLQSPDVKWFDDYYLKLRPETNHRNPWFQEFWQHRFQCRLEGFPQENSKYNKTCNSSLTLKTHHVQDSKMGFVINAIYSMAYGLHNMQMSLCPGYAGLCDAMKPIDGRKLLESLMKTNFTGVSGDTILFDENGDSPGRYEIMNFKEMGKDYFDYINVGSWDNGELKMDDDEVWSKKSNIIRSVCSEPCEKGQIKVIRKGEVSCCWTCTPCKENEYVFDEYTCKACQLGSWPTDDLTGCDLIPVQYLRWGDPEPIAAVVFACLGLLATLFVTVVFIIYRDTPVVKSSSRELCYIILAGICLGYLCTFCLIAKPKQIYCYLQRIGIGLSPAMSYSALVTKTNRIARILAGSKKKICTKKPRFMSACAQLVIAFILICIQLGIIVALFIMEPPDIMHDYPSIREVYLICNTTNLGVVTPLGYNGLLILSCTFYAFKTRNVPANFNEAKYIAFTMYTTCIIWLAFVPIYFGSNYKIITMCFSVSLSATVALGCMFVPKVYIILAKPERNVRSAFTTSTVVRMHVGDGKSSSAA
modifications: SNAP tag labelled with a cell-impermeant red fluorophore (SNAP-Red)
notes: metabotropic glutamate receptor 5 (mGlu5), human, truncated after A856 by a stop codon; Construct from Cisbio Bioassays; the SNAP tag is extracellular; also called SNAP-Tag C-terminal mGlu5-Δ856 receptor; hmGlu5-ΔCter-A856; source: HEK293, transiently transfected; extracted with MNG3/CHS, not purified; on cells in the cAMP assay
B2: mGlu5-Δ856-eGFP (receptor, human, UniProt P41594-2 21-856, looked up)
chain: B1 chain with N425A
notes: metabotropic glutamate receptor 5 (mGlu5), human, truncated after A856; GP64 signal peptide (AcNPV) at the N-terminus; TEV protease site between receptor and eGFP, then 10x His; Theoretical MW printed: monomer 124,784 Da; also called mGlu5-eGFP; not shown: eGFP, C-terminal, kept

Assays:
[1] = target: the molecule itself; experiment: non-reducing SDS-PAGE; SNAP-Red-labelled receptor extracted from HEK293 cells with detergent, non-purified material; non-reducing conditions; fluorescence scan of the gel
[2] = target: the molecule itself; experiment: non-reducing SDS-PAGE; purified receptor from Sf9 after SEC, Coomassie-blue stained gel; bands identified by mass spectrometry; reducing reagent raised the monomer band

Row | Protein | stoichiometry N [1] | stoichiometry N [2]
1 | B1 | 2 | –
2 | B2 | – | 2
